# Reference: paper PMC10681739, “High-throughput data and modeling reveal insights into the mechanisms of cooperative DNA-binding by transcription factor proteins”
# T1: ETS1 x2 (Homo sapiens, UniProt P14921)
# T1 sequence: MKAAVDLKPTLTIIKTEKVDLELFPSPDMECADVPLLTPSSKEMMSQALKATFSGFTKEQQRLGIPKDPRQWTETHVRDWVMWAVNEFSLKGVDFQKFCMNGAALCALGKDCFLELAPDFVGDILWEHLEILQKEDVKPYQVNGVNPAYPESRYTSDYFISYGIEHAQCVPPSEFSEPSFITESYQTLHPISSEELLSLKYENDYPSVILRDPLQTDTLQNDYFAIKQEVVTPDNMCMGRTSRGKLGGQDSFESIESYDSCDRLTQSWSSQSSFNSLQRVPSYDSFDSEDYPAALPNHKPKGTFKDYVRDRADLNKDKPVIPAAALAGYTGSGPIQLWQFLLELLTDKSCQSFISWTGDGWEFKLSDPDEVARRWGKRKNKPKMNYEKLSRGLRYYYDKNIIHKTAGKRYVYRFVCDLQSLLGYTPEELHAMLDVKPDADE
# B1: Table S4 A row 1500 (dsDNA)
# DNA 1: CTCGTCGCCAGGGGAAGTGCTTCCTGCTGACAGGTC
# DNA 2: GACCTGTCAGCAGGAAGCACTTCCCCTGGCGACGAG
# B2: Table S4 A row 2212 (dsDNA)
# DNA 1: CTGGGCCAGGCGGAAGCTCTGCTTCCGCATGCTGGG
# DNA 2: CCCAGCATGCGGAAGCAGAGCTTCCGCCTGGCCCAG
# B3: Table S4 A row 2304 (dsDNA)
# DNA 1: GCGGCCTGACGGGAAACGTAGTTTCCGGGGCCAAGA
# DNA 2: TCTTGGCCCCGGAAACTACGTTTCCCGTCAGGCCGC
# B4: Table S4 A row 376 (dsDNA)
# DNA 1: CGTGACACTTCTTTTCCTGTTTCCTGGGTCTCACCA
# DNA 2: TGGTGAGACCCAGGAAACAGGAAAAGAAGTGTCACG
# B5: Table S4 A row 126 (dsDNA)
# DNA 1: CACTGCACACTTCCTAGCAGGCTTCCTGTGTAGCTG
# DNA 2: CAGCTACACAGGAAGCCTGCTAGGAAGTGTGCAGTG
# B6: Table S4 A row 1258 (dsDNA)
# DNA 1: CCATCAGCAAACATCCCACCGGATGTTTTCTTAAGC
# DNA 2: GCTTAAGAAAACATCCGGTGGGATGTTTGCTGATGG
# B7: Table S4 A row 1550 (dsDNA)
# DNA 1: AAGTTGGGCCTGACTTCCTTCCTGTGGGGTTGCAGC
# DNA 2: GCTGCAACCCCACAGGAAGGAAGTCAGGCCCAACTT
# B8: Table S4 A row 1614 (dsDNA)
# DNA 1: GTTCTTCGACCCGGATGCGCTTCCTAATAAAACGGC
# DNA 2: GCCGTTTTATTAGGAAGCGCATCCGGGTCGAAGAAC
# B9: Table S4 A row 1203 (dsDNA)
# DNA 1: GGAGCGGAAGCCCTTTACACTACGGTGTTTCCGGCT
# DNA 2: AGCCGGAAACACCGTAGTGTAAAGGGCTTCCGCTCC
# B10: Table S4 A row 954 (dsDNA)
# DNA 1: GGTATACAGGAAACCCAGAGAGACAGGAAATGTCTC
# DNA 2: GAGACATTTCCTGTCTCTCTGGGTTTCCTGTATACC
# B11: Table S4 A row 1340 (dsDNA)
# DNA 1: TTGAGGCCCAGACCGGAACTTCCTTTCGGCCTCAGT
# DNA 2: ACTGAGGCCGAAAGGAAGTTCCGGTCTGGGCCTCAA
# B12: Table S4 A row 916 (dsDNA)
# DNA 1: ACTGCAGATCCCCTTCCTGTTTCCTTTGCTCTCCTG
# DNA 2: CAGGAGAGCAAAGGAAACAGGAAGGGGATCTGCAGT
# B13: Table S4 A row 1887 (dsDNA)
# DNA 1: CACTCAGGAAGTAGGTCAGGAGGAGATATCCTGTGT
# DNA 2: ACACAGGATATCTCCTCCTGACCTACTTCCTGAGTG
# B14: Table S4 A row 2352 (dsDNA)
# DNA 1: CGCCGCTGACACCGGAACCGGAAACTTCATCAGGAG
# DNA 2: CTCCTGATGAAGTTTCCGGTTCCGGTGTCAGCGGCG
# B15: Table S4 A row 215 (dsDNA)
# DNA 1: GGGCCCCAGCTTCCTCTCTGCCTTCCGCCGCCCGCT
# DNA 2: AGCGGGCGGCGGAAGGCAGAGAGGAAGCTGGGGCCC
# B16: Table S4 A row 1898 (dsDNA)
# DNA 1: CCACCGGAAGACCTCAGTCATGTGGGTTTTCCGGTT
# DNA 2: AACCGGAAAACCCACATGACTGAGGTCTTCCGGTGG
# B17: Table S4 A row 1964 (dsDNA)
# DNA 1: CCACGGTGGTGACTTCCTTTTCCGCTCCCCTACACA
# DNA 2: TGTGTAGGGGAGCGGAAAAGGAAGTCACCACCGTGG
# B18: Table S4 A row 2250 (dsDNA)
# DNA 1: CTGACAGACCCGGAAATAAGAGGAAACCACACACTT
# DNA 2: AAGTGTGTGGTTTCCTCTTATTTCCGGGTCTGTCAG
# B19: Table S4 A row 189 (dsDNA)
# DNA 1: CACTTTCTGAAGAGGAAACAGGAAGTGTGTTTCATA
# DNA 2: TATGAAACACACTTCCTGTTTCCTCTTCAGAAAGTG
# B20: Table S4 A row 1913 (dsDNA)
# DNA 1: AAATAACAGAAAGGAAATACATCCTGCCAGTTAACA
# DNA 2: TGTTAACTGGCAGGATGTATTTCCTTTCTGTTATTT
# B21: Table S4 A row 1689 (dsDNA)
# DNA 1: TGCCCGGATGTTGAGGTCTGGTTGGCATTTCCTGTG
# DNA 2: CACAGGAAATGCCAACCAGACCTCAACATCCGGGCA
# B22: Table S4 A row 255 (dsDNA)
# DNA 1: CTGGAGGCAGGCTTCCTGTGCTTCCTGTAGGTGACA
# DNA 2: TGTCACCTACAGGAAGCACAGGAAGCCTGCCTCCAG
# B23: Table S4 A row 634 (dsDNA)
# DNA 1: AGACAGACACTGCTTCCTGCTTCCTAATGGCCGATC
# DNA 2: GATCGGCCATTAGGAAGCAGGAAGCAGTGTCTGTCT
# B24: Table S4 A row 842 (dsDNA)
# DNA 1: GGGTGGCCCAGGCTTCCGCTTCCTGCCCACATACCC
# DNA 2: GGGTATGTGGGCAGGAAGCGGAAGCCTGGGCCACCC
# B25: Table S4 A row 822 (dsDNA)
# DNA 1: AGCAGCTCAACAGGAAATACATCCTTTTCTGGTTGA
# DNA 2: TCAACCAGAAAAGGATGTATTTCCTGTTGAGCTGCT
# B26: Table S4 A row 314 (dsDNA)
# DNA 1: TTGGGAGGCACAGGAAGACCGGATGTGGTTTAAGAA
# DNA 2: TTCTTAAACCACATCCGGTCTTCCTGTGCCTCCCAA
# B27: Table S4 A row 57 (dsDNA)
# DNA 1: ACTGGAGAACAGGAAATAGCAGGAAACGTCACCTAC
# DNA 2: GTAGGTGACGTTTCCTGCTATTTCCTGTTCTCCAGT
# B28: Table S4 A row 1991 (dsDNA)
# DNA 1: GCGCGCACCCTCCTTCCGGCATCCGTAGAACCCCCG
# DNA 2: CGGGGGTTCTACGGATGCCGGAAGGAGGGTGCGCGC
# B29: Table S4 A row 2376 (dsDNA)
# DNA 1: CCCAGAGCCAATTTTCCACTTCCGCTTCCGGCGCTG
# DNA 2: CAGCGCCGGAAGCGGAAGTGGAAAATTGGCTCTGGG
# B30: Table S4 A row 2128 (dsDNA)
# DNA 1: CCGGCCCGCAGCCGGAACCGGAAATGCCCTTAGGGA
# DNA 2: TCCCTAAGGGCATTTCCGGTTCCGGCTGCGGGCCGG
# B31: Table S4 A row 2364 (dsDNA)
# DNA 1: GTGGGGCTTCCTGCCGCAGAGCCGCCTTCCGCCCTC
# DNA 2: GAGGGCGGAAGGCGGCTCTGCGGCAGGAAGCCCCAC
# B32: Table S4 A row 2310 (dsDNA)
# DNA 1: CATACGGCGCCACCGGAAGTTCCGGCAAGTGGGCCC
# DNA 2: GGGCCCACTTGCCGGAACTTCCGGTGGCGCCGTATG
# B33: Table S4 A row 763 (dsDNA)
# DNA 1: GGGCAACTTCCGCGACCTCTACCACATCCTTGAGAA
# DNA 2: TTCTCAAGGATGTGGTAGAGGTCGCGGAAGTTGCCC
# B34: Table S4 A row 557 (dsDNA)
# DNA 1: TTGACATCCTGCTCTCCTGTGACTTTGCTTCCTGTT
# DNA 2: AACAGGAAGCAAAGTCACAGGAGAGCAGGATGTCAA
# B35: Table S4 A row 323 (dsDNA)
# DNA 1: TCCATGACCCCATTTCCGCTTCCTACAGGTGAGTGT
# DNA 2: ACACTCACCTGTAGGAAGCGGAAATGGGGTCATGGA
# B36: Table S4 A row 809 (dsDNA)
# DNA 1: GCTTGGGTGTTTCCTGTGCTGCTTCCTCTCCAACCT
# DNA 2: AGGTTGGAGAGGAAGCAGCACAGGAAACACCCAAGC
# B37: Table S4 A row 2457 (dsDNA)
# DNA 1: TGCAGCTAACTACTTCCGCTTCCGCTTGCGTCCCCT
# DNA 2: AGGGGACGCAAGCGGAAGCGGAAGTAGTTAGCTGCA
# B38: Table S4 A row 1450 (dsDNA)
# DNA 1: CTCCCACTTCCTTCCTGTGCGGGGAAGAAAACTGCC
# DNA 2: GGCAGTTTTCTTCCCCGCACAGGAAGGAAGTGGGAG
# B39: Table S4 A row 2476 (dsDNA)
# DNA 1: TGTGCCGTAGCATTTCCGGCGGAAGTTGCTGGGCGC
# DNA 2: GCGCCCAGCAACTTCCGCCGGAAATGCTACGGCACA
# B40: Table S4 A row 2246 (dsDNA)
# DNA 1: AAAGCACGACCTTCCGGGACCGGAAGTGCCGGTCGA
# DNA 2: TCGACCGGCACTTCCGGTCCCGGAAGGTCGTGCTTT
# B41: Table S4 A row 1254 (dsDNA)
# DNA 1: TGAAAATGAGCATTTCCTGTTTCCTCAGGCATTTCT
# DNA 2: AGAAATGCCTGAGGAAACAGGAAATGCTCATTTTCA
# B42: Table S4 A row 1194 (dsDNA)
# DNA 1: TCGGAACAGTGACTTCCGGCGGAAGAAGAAGCCGGT
# DNA 2: ACCGGCTTCTTCTTCCGCCGGAAGTCACTGTTCCGA
# Biological target: T1, ETS1 x2
# Assay: gcPBM; 10 nM ETS1
# Settings: tags: N-terminal GST (pDEST15), kept (PMC6008103); chain copies: 2; label: surface-attached array probe
row,Binder,binding signal
1,B1,"4140 PBM fluorescence, median of replicate spots"
2,B2,"4240 PBM fluorescence, median of replicate spots"
3,B3,"4630 PBM fluorescence, median of replicate spots"
4,B4,"4760 PBM fluorescence, median of replicate spots"
5,B5,"4970 PBM fluorescence, median of replicate spots"
6,B6,"5080 PBM fluorescence, median of replicate spots"
7,B7,"5110 PBM fluorescence, median of replicate spots"
8,B8,"5240 PBM fluorescence, median of replicate spots"
9,B9,"5440 PBM fluorescence, median of replicate spots"
10,B10,"5630 PBM fluorescence, median of replicate spots"
11,B11,"5800 PBM fluorescence, median of replicate spots"
12,B12,"6260 PBM fluorescence, median of replicate spots"
13,B13,"6420 PBM fluorescence, median of replicate spots"
14,B14,"6600 PBM fluorescence, median of replicate spots"
15,B15,"6960 PBM fluorescence, median of replicate spots"
16,B16,"7470 PBM fluorescence, median of replicate spots"
17,B17,"7690 PBM fluorescence, median of replicate spots"
18,B18,"8250 PBM fluorescence, median of replicate spots"
19,B19,"8380 PBM fluorescence, median of replicate spots"
20,B20,"8690 PBM fluorescence, median of replicate spots"
21,B21,"9040 PBM fluorescence, median of replicate spots"

row,Binder,binding signal
1,B22,"9790 PBM fluorescence, median of replicate spots"
2,B23,"10500 PBM fluorescence, median of replicate spots"
3,B24,"10900 PBM fluorescence, median of replicate spots"
4,B25,"11900 PBM fluorescence, median of replicate spots"
5,B26,"12700 PBM fluorescence, median of replicate spots"
6,B27,"13600 PBM fluorescence, median of replicate spots"
7,B28,"15100 PBM fluorescence, median of replicate spots"
8,B29,"15700 PBM fluorescence, median of replicate spots"
9,B30,"17000 PBM fluorescence, median of replicate spots"
10,B31,"17300 PBM fluorescence, median of replicate spots"
11,B32,"18500 PBM fluorescence, median of replicate spots"
12,B33,"19000 PBM fluorescence, median of replicate spots"
13,B34,"20500 PBM fluorescence, median of replicate spots"
14,B35,"21500 PBM fluorescence, median of replicate spots"
15,B36,"23300 PBM fluorescence, median of replicate spots"
16,B37,"24300 PBM fluorescence, median of replicate spots"
17,B38,"25000 PBM fluorescence, median of replicate spots"
18,B39,"26900 PBM fluorescence, median of replicate spots"
19,B40,"28900 PBM fluorescence, median of replicate spots"
20,B41,"31500 PBM fluorescence, median of replicate spots"
21,B42,"32500 PBM fluorescence, median of replicate spots"
